# Laboratory results: patent publication US10428140B2, “Anti-EphA4 antibody” (EISAI R&D MANAGEMENT CO., LTD., priority 2015, dated 2019)
# Positions count from the first letter of the chain named.
# T1: human EphB6 (Homo sapiens, UniProt O15197)
# T1 construct: a protein of the extracellular region of each human Eph receptor fused with the SEAP protein and the His tag; made in house; host or cells: Expi293F cells
# T1 sequence (O15197 32-594 limits assumed): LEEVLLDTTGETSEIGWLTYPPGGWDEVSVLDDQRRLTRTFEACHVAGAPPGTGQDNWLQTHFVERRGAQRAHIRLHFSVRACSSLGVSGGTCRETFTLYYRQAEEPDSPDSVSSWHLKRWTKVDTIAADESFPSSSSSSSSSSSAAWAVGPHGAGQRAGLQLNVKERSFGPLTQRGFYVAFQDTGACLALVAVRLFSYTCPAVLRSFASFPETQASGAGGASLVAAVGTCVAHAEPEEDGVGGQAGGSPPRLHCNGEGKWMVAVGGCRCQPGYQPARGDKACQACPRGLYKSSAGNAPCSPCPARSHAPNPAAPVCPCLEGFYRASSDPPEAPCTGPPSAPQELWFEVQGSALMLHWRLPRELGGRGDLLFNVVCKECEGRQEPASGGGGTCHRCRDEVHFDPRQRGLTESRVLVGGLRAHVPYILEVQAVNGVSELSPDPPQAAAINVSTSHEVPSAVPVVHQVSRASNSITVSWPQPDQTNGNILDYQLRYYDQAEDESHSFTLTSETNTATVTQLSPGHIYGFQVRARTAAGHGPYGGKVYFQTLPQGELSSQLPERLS
# T2: human EphB4 (Homo sapiens, UniProt P54760)
# T2 construct: a protein of the extracellular region of each human Eph receptor fused with the SEAP protein and the His tag; made in house; host or cells: Expi293F cells
# T2 sequence (P54760 16-539 limits assumed): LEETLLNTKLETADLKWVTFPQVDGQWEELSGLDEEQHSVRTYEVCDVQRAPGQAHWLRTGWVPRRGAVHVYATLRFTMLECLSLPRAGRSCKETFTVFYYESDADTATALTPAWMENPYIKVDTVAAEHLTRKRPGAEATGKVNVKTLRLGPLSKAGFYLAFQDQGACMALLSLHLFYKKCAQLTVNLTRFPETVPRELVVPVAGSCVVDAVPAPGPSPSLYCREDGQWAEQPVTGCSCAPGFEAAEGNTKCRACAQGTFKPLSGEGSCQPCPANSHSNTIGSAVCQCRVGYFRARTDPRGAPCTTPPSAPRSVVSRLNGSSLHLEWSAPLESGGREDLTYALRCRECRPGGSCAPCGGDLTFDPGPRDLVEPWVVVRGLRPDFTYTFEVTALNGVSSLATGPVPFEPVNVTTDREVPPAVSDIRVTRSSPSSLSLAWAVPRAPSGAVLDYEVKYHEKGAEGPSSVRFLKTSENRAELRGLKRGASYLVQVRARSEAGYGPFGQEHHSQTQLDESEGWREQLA
# T3: human EphA3 (Homo sapiens, UniProt P29320)
# T3 construct: a protein of the extracellular region of each human Eph receptor fused with the SEAP protein and the His tag; made in house; host or cells: Expi293F cells (culture supernatant)
# T3 sequence (P29320 21-541 limits assumed): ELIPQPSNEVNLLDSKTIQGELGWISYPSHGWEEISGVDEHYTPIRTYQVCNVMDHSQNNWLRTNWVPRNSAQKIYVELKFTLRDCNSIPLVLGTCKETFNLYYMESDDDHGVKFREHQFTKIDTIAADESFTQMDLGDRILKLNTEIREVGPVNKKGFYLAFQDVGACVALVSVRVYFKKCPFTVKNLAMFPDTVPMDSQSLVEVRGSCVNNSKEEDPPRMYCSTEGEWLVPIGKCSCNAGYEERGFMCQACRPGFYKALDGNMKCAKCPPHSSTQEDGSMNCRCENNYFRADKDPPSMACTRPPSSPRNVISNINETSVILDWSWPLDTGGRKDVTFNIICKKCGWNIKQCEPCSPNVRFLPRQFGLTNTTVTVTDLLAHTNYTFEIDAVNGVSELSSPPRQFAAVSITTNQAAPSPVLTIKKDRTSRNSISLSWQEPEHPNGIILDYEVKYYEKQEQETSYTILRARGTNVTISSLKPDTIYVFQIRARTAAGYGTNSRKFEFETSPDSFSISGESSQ
# B1: 95 (antibody, V domains shown)
# VL: EIVMTQSPATLSVSPGERATLSCRASENIYRNLAWYQQKPGQSPRLLIYAATNLADGIPARFSGSGSGTEYTLTISSLQSEDFAVYYCQHFWGTPWTFGQGTKVEIK
# VH: QVQLVQSGSELKKPGASVKVSCKASGYTFTDYSMHWVRQAPGQGLEWMGWINTETGEPTYADDFKGRFVFSLDTSVSTAYLQISSLKAEDTAVYYCARIPLYYYGSRYWYFDVWGQGTTVTVSS
# modifications: constant regions without entry; synthetic humanized antibody light chain variable region sequence; synthetic humanized antibody heavy chain variable region sequence
# B2: 96 (antibody, V domains shown)
# VL: B1 VL
# VH: B1 VH with E46K
# modifications: constant regions without entry; synthetic humanized antibody light chain variable region sequence; synthetic humanized antibody heavy chain variable region sequence
# B3: 73 (antibody, V domains shown)
# VH: B1 VH with V2I, E46K
# VL: B1 VL
# modifications: synthetic humanized antibody heavy chain variable region sequence; synthetic humanized antibody light chain variable region sequence
# B4: 139 (antibody)
# VH: B1 VH with D62Q, D63G, K65T
# VL: DIQMTQSPSSLSASVGDRVTITCRASENIYRNLAWYQQKPGKAPKLLVYAATNLADGVPSRFSGSGSGTDYTLTISSLQPEDFATYYCQHFWGTPWTFGQGTKVEIK
# chain: ASTKGPSVFPLAPSSRSTSESTAALGCLVKDYFPEPVTVSWNSGALTSGVHTFPAVLQSSGLYSLSSVVTVPSSNFGTQTYTCNVDHKPSNTKVDKTVERKSCVECPPCPAPPAAAPSVFLFPPKPKDTLMISRTPEVTCVVVDVSHEDPEVQFNWYVDGVEVHNAKTKPREEQFNSTFRVVSVLTVVHQDWLNGKEYKCKVSNKGLPAPIEKTISKTKGQPREPQVYTLPPSREEMTKNQVSLTCLVKGFYPSDIAVEWESNGQPENNYKTTPPMLDSDGSFFLYSKLTVDKSRWQQGNVFSCSVMHEALHNHYTQKSLSLSPG
# modifications: synthetic humanized antibody heavy chain variable region sequence; synthetic humanized antibody light chain variable region sequence; synthetic antibody constant region sequence
# B5: 140 (antibody, V domains shown)
# VH: B1 VH with E46K, D62Q, D63G, K65T
# VL: B4 VL
# modifications: synthetic humanized antibody heavy chain variable region sequence; synthetic humanized antibody light chain variable region sequence
# B6: 138 (antibody, V domains shown)
# VH: B1 VH with V2I, E46K, D62Q, D63G, K65T
# VL: B4 VL
# modifications: synthetic humanized antibody heavy chain variable region sequence; synthetic humanized antibody light chain variable region sequence
# B7: 141 (antibody, V domains shown)
# VH: B1 VH
# VL: B4 VL
# modifications: synthetic humanized antibody heavy chain variable region sequence; synthetic humanized antibody light chain variable region sequence
# B8: 142 (antibody, V domains shown)
# VH: B1 VH with E46K
# VL: B4 VL
# modifications: synthetic humanized antibody heavy chain variable region sequence; synthetic humanized antibody light chain variable region sequence
# Target: T1, human EphB6
# Assay: Selectivity ELISA of humanized antibodies for human Eph receptor
# Format: binding
# Conditions: coated protein 1 nM
# Text: (§1) According to the method described in Example 7, a DNA sequence encoding the signal sequence and the extracellular region of each human Eph receptor (EphA1, EphA2, EphA3, EphA4, EphA5, EphA6, EphA7, EphA8, EphA10, EphB1, EphB2, EphB3, EphB4, and EphB6) was amplified by RT-PCR using tissue-derived total RNA and cloned into a pENTR1A vector (Invitrogen/Life Technologies) having a DNA sequence encoding SEAP protein and histidine tag. Next, the DNA sequence encoding the signal sequence and the extracellular region of each human Eph receptor, SEAP protein, and histidine tag was transferred to a pcDNA3.1_rfcB vector through LR reaction using Gateway System (Invitrogen/Life Technologies) to construct a vector for the expression of a protein of the extracellular region of each human Eph receptor fused with the SEAP protein and the His tag (referred to as “Eph receptor extracellular region-SEAP-His protein”) (this vector is referred to as “Eph receptor extracellular region-SEAP-His protein expression vector”).
# (§2) Next, each human Eph receptor extracellular region-SEAP-His protein expression vector was transferred to Expi293F cells (Gibco/Thermo Fisher Scientific) using Expi293 expression system (Gibco/Thermo Fisher Scientific). After incubation (5% CO2, 37° C.) for 5 days, the culture supernatant was recovered and centrifuged at 1500 rpm at room temperature for 5 minutes. The centrifugation supernatant was filtered through a 0.45-μm filter (Merck Millipore).
# (§3) Each anti-EphA4 monoclonal humanized antibody obtained in Example 16 was evaluated for its binding activity against each human Eph receptor according to the following steps.
# (§4) Each well of a 96-well plate (Nunc) was coated with a rabbit anti-6-His antibody (Bethyl Laboratories). Each well was […] After washing with 0.05% Tween 20/PBS (Nacalai Tesque) three times, the SEAP-His protein of human EphA1, EphA2, EphA3, EphA4, EphA5, EphA6, EphA7, EphA8, EphA10, EphB1, EphB2, EphB3, EphB4, or EphB6 was added (final concentration: 1 nM) to each well and incubated at room temperature for 1 hour. After washing three times, the humanized antibody was added to each well and incubated at room temperature for 1 hour. After washing three times, a horseradish peroxidase-labeled donkey […] IgG antibody (Jackson ImmunoResearch Laboratories) was added thereto and incubated at room temperature for 1 hour. After washing three times, TMB Microwell Peroxidase Substrate System (Kirkegaard & Perry Laboratories (KPL)) was added to each well. After confirmation of moderate color development, an equal amount of a reaction stopping solution (1N H2SO4, Wako Pure Chemical Industries) was added to each well. The absorbance at 450 nm was read using a microplate reader (Thermo Fisher Scientific).
row,Molecule,"hEphB6-SEAP-: absorbance at 450 nm, percentage with respect to hEphA4-SEAP-His as 100% [%]"
1,B1,4.7
2,B2,5.5
3,B3,5.6
4,B4,5.9
5,B5,5.2
6,B6,5.0
7,B7,5.4
8,B8,5.6

# Target: T2, human EphB4
# Assay: as above
# Format: binding
# Conditions: coated protein 1 nM
# Text: as §1, §2, §3, §4
row,Molecule,"hEphB4-SEAP-: absorbance at 450 nm, percentage with respect to hEphA4-SEAP-His as 100% [%]"
1,B1,4.6
2,B2,5.5
3,B3,5.7
4,B4,5.7
5,B5,5.4
6,B6,5.2
7,B7,5.4
8,B8,5.7

# Target: T3, human EphA3
# Assay: as above
# Format: binding
# Conditions: coated protein 1 nM
# Text: as §1, §2, §3, §4
row,Molecule,"hEphA3-SEAP-: absorbance at 450 nm, percentage with respect to hEphA4-SEAP-His as 100% [%]"
1,B1,4.8
2,B2,5.5
3,B3,5.8
4,B4,5.9
5,B5,5.5
6,B6,4.9
7,B7,5.3
8,B8,5.5
